# Values quoted from earlier work as cited in patent publication US9394339B2, “Stabilized formulations of peptides and proteins protecting against non-enzymatic degradation” (Lyotropic Therapeutics, Inc., priority 2007, dated 2016).
# B1: Procathepsin K (1BY8): human protein (protein, UniProt P43235 16-329, looked up)
# pro-form: LYPEEILDTHWELWKKTHRKQYNNKVDEISRRLIWEKNLKYISIHNLEASLGVHTYELAMNHLGDMTSEEVVQKMTGLKVPLSHSRSNDTLYIPEWEGRAPDSVDYRKKGYVTPVKNQGQCGSCWAFSSVGALEGQLKKKTGKLLNLSPQNLVDCVSENDGCGGGYMTNAFQYVQKNRGIDSEDAYPYVGQEESCMYNPTGKAAKCRGYREIPEGNEKALKRAVARVGPVSVAIDASLTSFQFYSKGVYYDESCNSDNLNHAVLAVGYGIQKGNKHWIIKNSWGENWGNKGYILMARNKNNACGIANLASFPKM
# modifications: pro-form
# B2: Medium chain acyl-coa dehydrogenase (1EGE): human protein (protein, UniProt P11310 26-421, looked up)
# Medium-chain specific …: KANRQREPGLGFSFEFTEQQKEFQATARKFAREEIIPVAAEYDKTGEYPVPLIRRAWELGLMNTHIPENCGGLGLGTFDACLISEELAYGCTGVQTAIEGNSLGQMPIIIAGNDQQKKKYLGRMTEEPLMCAYCVTEPGAGSDVAGIKTKAEKKGDEYIINGQKMWITNGGKANWYFLLARSDPDPKAPANKAFTGFIVEADTPGIQIGRKELNMGQRCSDTRGIVFEDVKVPKENVLIGDGAGFKVAMGAFDKTRPVVAAGAVGLAQRALDEATKYALERKTFGKLLVEHQAISFMLAEMAMKVELARMSYQRAAWEVDSGRRNTYYASIAKAFAGDIANQLATDAVQILGGNGFNTEYPVEKLMRDAKIYQIYEGTSQIQRLIVAREHIDKYKN
# B3: Transaldolase (1F05): human protein (protein, UniProt P37837 1-337, looked up)
# Transaldolase: MSSSPVKRQRMESALDQLKQFTTVVADTGDFHAIDEYKPQDATTNPSLILAAAQMPAYQELVEEAIAYGRKLGGSQEDQIKNAIDKLFVLFGAEILKKIPGRVSTEVDARLSFDKDAMVARARRLIELYKEAGISKDRILIKLSSTWEGIQAGKELEEQHGIHCNMTLLFSFAQAVACAEAGVTLISPFVGRILDWHVANTDKKSYEPLEDPGVKSVTKIYNYYKKFSYKTIVMGASFRNTGEIKALAGCDFLTISPKLLGELLQDNAKLVPVLSAKAAQASDLEKIHLDEKSFRWLHNEDQMAVEKLSDGIRKFAADAVKLERMLTERMFNAENGK
# B4: Procathepsin L (1CS8): human protein (protein, UniProt P07711 18-333, looked up)
# pro-form: TLTFDHSLEAQWTKWKAMHNRLYGMNEEGWRRAVWEKNMKMIELHNQEYREGKHSFTMAMNAFGDMTSEEFRQVMNGFQNRKPRKGKVFQEPLFYEAPRSVDWREKGYVTPVKNQGQCGSCWAFSATGALEGQMFRKTGRLISLSEQNLVDCSGPQGNEGCNGGLMDYAFQYVQDNGGLDSEESYPYEATEESCKYNPKYSVANDTGFVDIPKQEKALMKAVATVGPISVAIDAGHESFLFYKEGIYFEPDCSSEDMDHGVLVVGYGFESTESDNNKYWLVKNSWGEEWGMGGYVKMAKDRRNHCGIASAASYPTV
# modifications: pro-form
# B5: Ribonuclease A (1AFK): human protein (protein, UniProt P61823 27-150, looked up)
# Ribonuclease pancreatic: KETAAAKFERQHMDSSTSAASSSNYCNQMMKSRNLTKDRCKPVNTFVHESLADVQAVCSQKNVACKNGQTNCYQSYSTMSITDCRETGSSKYPNCAYKTTQANKHIIVACEGNPYVPVHFDASV
# B6: Carbonic anhydrase IV (1ZNC): human protein (protein, UniProt P22748 19-284, looked up)
# Carbonic anhydrase 4: AESHWCYEVQAESSNYPCLVPVKWGGNCQKDRQSPINIVTTKAKVDKKLGRFFFSGYDKKQTWTVQNNGHSVMMLLENKASISGGGLPAPYQAKQLHLHWSDLPYKGSEHSLDGEHFAMEMHIVHEKEKGTSRNVKEAQDPEDEIAVLAFLVEAGTQVNEGFQPLVEALSNIPKPEMSTTMAESSLLDLLPKEEKLRHYFRYLGSLTTPTCDEKVVWTVFREPIQLHREQILAFSQKLYYDKEQTVSMKDNVRPLQQLGQRTVIKS
# B7: Branched-chain -keto acid dehydrogenase (1DTW): human protein (protein, UniProt P12694 46-445; P21953 51-392, looked up)
# 2-oxoisovalerate … 1: SSLDDKPQFPGASAEFIDKLEFIQPNVISGIPIYRVMDRQGQIINPSEDPHLPKEKVLKLYKSMTLLNTMDRILYESQRQGRISFYMTNYGEEGTHVGSAAALDNTDLVFGQYREAGVLMYRDYPLELFMAQCYGNISDLGKGRQMPVHYGCKERHFVTISSPLATQIPQAVGAAYAAKRANANRVVICYFGEGAASEGDAHAGFNFAATLECPIIFFCRNNGYAISTPTSEQYRGDGIAARGPGYGIMSIRVDGNDVFAVYNATKEARRRAVAENQPFLIEAMTYRIGHHSTSDDSSAYRSVDEVNYWDKQDHPISRLRHYLLSQGWWDEEQEKAWRKQSRRKVMEAFEQAERKPKPNPNLLFSDVYQEMPAQLRKQQESLARHLQTYGEHYPLDHFDK
# 2-oxoisovalerate … 2: VAHFTFQPDPEPREYGQTQKMNLFQSVTSALDNSLAKDPTAVIFGEDVAFGGVFRCTVGLRDKYGKDRVFNTPLCEQGIVGFGIGIAVTGATAIAEIQFADYIFPAFDQIVNEAAKYRYRSGDLFNCGSLTIRSPWGCVGHGALYHSQSPEAFFAHCPGIKVVIPRSPFQAKGLLLSCIEDKNPCIFFEPKILYRAAAEEVPIEPYNIPLSQAEVIQEGSDVTLVAWGTQVHVIREVASMAKEKLGVSCEVIDLRTIIPWDVDTICKSVIKTGRLLISHEAPLTGGFASEISSTVQEECFLNLEAPISRVCGYDTPFPHIFEPFYIPDKWKCYDALRKMINY
# B8: Dihydropteridine reductase (1HDR): human protein (protein, UniProt P09417 2-244, looked up)
# Dihydropteridine reductase: AAAAAAGEARRVLVYGGRGALGSRCVQAFRARNWWVASVDVVENEEASASIIVKMTDSFTEQADQVTAEVGKLLGEEKVDAILCVAGGWAGGNAKSKSLFKNCDLMWKQSIWTSTISSHLATKHLKEGGLLTLAGAKAALDGTPGMIGYGMAKGAVHQLCQSLAGKNSGMPPGAAAIAVLPVTLDTPMNRKSMPEADFSSWTPLEFLVETFHDWITGKNRPSSGSLIQVVTTEGRTELTPAYF
# B9: Purine nucleoside phosphorylase (1ULA): human protein (protein, UniProt P00491 1-289, looked up)
# Purine nucleoside …: MENGYTYEDYKNTAEWLLSHTKHRPQVAIICGSGLGGLTDKLTQAQIFDYGEIPNFPRSTVPGHAGRLVFGFLNGRACVMMQGRFHMYEGYPLWKVTFPVRVFHLLGVDTLVVTNAAGGLNPKFEVGDIMLIRDHINLPGFSGQNPLRGPNDERFGDRFPAMSDAYDRTMRQRALSTWKQMGEQRELQEGTYVMVAGPSFETVAECRVLQKLGADAVGMSTVPEVIVARHCGLRVFGFSLITNKVIMDYESLEKANHEEVLAAGKQAAQKLEQFVSILMASIPLPDKAS
# B10: Fructose-1,6-bisphosphatase (1FTA): human protein (protein, UniProt P09467 2-338, looked up)
# Fructose-1,6-bisphosphatase 1: ADQAPFDTDVNTLTRFVMEEGRKARGTGELTQLLNSLCTAVKAISSAVRKAGIAHLYGIAGSTNVTGDQVKKLDVLSNDLVMNMLKSSFATCVLVSEEDKHAIIVEPEKRGKYVVCFDPLDGSSNIDCLVSVGTIFGIYRKKSTDEPSEKDALQPGRNLVAAGYALYGSATMLVLAMDCGVNCFMLDPAIGEFILVDKDVKIKKKGKIYSLNEGYARDFDPAVTEYIQRKKFPPDNSAPYGARYVGSMVADVHRTLVYGGIFLYPANKKSPNGKLRLLYECNPMAYVMEKAGGMATTGKEAVLDVIPTDIHQRAPVILGSPDDVLEFLKVYEKHSAQ
# Conditions: aqueous solution, pH 7.4, 37° C., Tris-HCl buffer
row,Molecule,T1/10 (time to 10% degradation by deamidation) [days]
1,B1,4.3
2,B2,5.5
3,B3,0.21
4,B4,7.3
5,B5,10
6,B6,11
7,B7,12
8,B8,15
9,B9,0.27

# Same assay, conditions: buffer, pH 7.4
row,Molecule,"T1/2 (half-life, deamidation) [days]"
1,B10,59

# Same assay, conditions: pH 7.4
row,Molecule,T1/10 (time to 10% degradation by deamidation) [days]
1,B10,9.0
